# “And” between values parts separate entries of the source, which are not always exact repeats. Equal values may be shown once.
# B1: H84T-banana lectin (H84T-BanLec) (designed binder)
# chain: MNGAIKVGAWGGNGGSAFDMGPAYRIISVKIFSGDVVDAVDVTFTYYGKTETRHFGGSGGTPHEIVLQEGEYLVGMKGEFGNYTGVVVVGKLGFSTNKKSYGPFGNTGGTPFSLPIAAGKISGFFGRGGDFIDAIGVYLEP
# Target: the molecule itself
protein,measurement,value
B1,stoichiometry N,2 and 4
